What was measured:
Assay in all cases: cell-based or functional assay
[1] = biological target: HIV-1 Env of pseudovirus 231966.c02 (HIV-1)
[2] = biological target: HIV-1 Env of pseudovirus BJOX025000.01.1 (HIV-1)
[3] = biological target: HIV-1 Env of pseudovirus 1054_07_TC4_1499 (HIV-1)
[4] = biological target: HIV-1 Env of pseudovirus Ce1176_A3 (HIV-1)
[5] = biological target: HIV-1 Env of pseudovirus A07412M1.vrc12 (HIV-1)
[6] = biological target: HIV-1 Env of pseudovirus CNE53 (HIV-1)
[7] = biological target: HIV-1 Env of pseudovirus Ce1172_H1 (HIV-1)
[8] = biological target: HIV-1 Env of pseudovirus BJOX028000.10.3 (HIV-1)
[9] = biological target: HIV-1 Env of pseudovirus 6244_13_B5_4576 (HIV-1)
[10] = biological target: HIV-1 Env of pseudovirus R1166.c01 (HIV-1)
[11] = biological target: HIV-1 Env of pseudovirus Q769.d22 (HIV-1)
[12] = biological target: HIV-1 Env of pseudovirus HIV-16845-2.22 (HIV-1)
[13] = biological target: HIV-1 Env of pseudovirus PVO.4 (HIV-1)
[14] = biological target: HIV-1 Env of pseudovirus HIV-0013095-2.11 (HIV-1)
[15] = biological target: HIV-1 Env of pseudovirus BJOX010000.06.2 (HIV-1)
[16] = biological target: HIV-1 Env of pseudovirus ZM247v1(Rev-) (HIV-1)
[17] = biological target: HIV-1 Env of pseudovirus SC05_8C11_2344 (HIV-1)
[18] = biological target: HIV-1 Env of pseudovirus WEAU_d15_410_787 (HIV-1)
[19] = biological target: HIV-1 Env of pseudovirus 3365.v2.c2 (HIV-1)
[20] = biological target: HIV-1 Env of pseudovirus C1080.c03 (HIV-1)
[21] = biological target: HIV-1 Env of pseudovirus HIV-001428-2.42 (HIV-1)
[22] = biological target: HIV-1 Env of pseudovirus TRO.11 (HIV-1)
[23] = biological target: HIV-1 Env of pseudovirus ZM233M.PB6 (HIV-1)
[24] = biological target: HIV-1 Env of pseudovirus MS208.A1 (HIV-1)
[25] = biological target: HIV-1 Env of pseudovirus 3817.v2.c59 (HIV-1)
[26] = biological target: HIV-1 Env of pseudovirus CAAN5342.A2 (HIV-1)
[27] = biological target: HIV-1 Env of pseudovirus Ce2010_F5 (HIV-1)
[28] = biological target: HIV-1 Env of pseudovirus Ce1086_B2 (HIV-1)
[29] = biological target: HIV-1 Env of pseudovirus REJO4541.67 (HIV-1)
[30] = biological target: HIV-1 Env of pseudovirus 6535.3 (HIV-1)
[31] = biological target: HIV-1 Env of pseudovirus QH0692.42 (HIV-1)
[32] = biological target: HIV-1 Env of pseudovirus C3347.c11 (HIV-1)
[33] = biological target: HIV-1 Env of pseudovirus R3265.c06 (HIV-1)
[34] = biological target: HIV-1 Env of pseudovirus Q23.17 (HIV-1)
[35] = biological target: HIV-1 Env of pseudovirus T278-50 (HIV-1)

Work on 3BNC117 (antibody) yielded an IC50, titer in TZM.bl cells [1] of 0.29 µg/mL, an IC80, titer in TZM.bl cells [1] of 2.37 µg/mL and an IC50, titer in TZM.bl cells [2] of 0.05 µg/mL. For the same substance, the IC80, titer in TZM.bl cells [2] was 0.2 µg/mL, the neutralization IC50 [3] was 0.07 µg/mL and the neutralization IC80 [3] was 0.49 µg/mL. The neutralization IC50 [4] was 0.22 µg/mL, the neutralization IC80 [4] was 0.75 µg/mL and the IC50, titer in TZM.bl cells [5] was 0.02 µg/mL. For the same substance, the IC80, titer in TZM.bl cells [5] was 0.1 µg/mL, the neutralization IC50 [6] was 0.08 µg/mL and the neutralization IC80 [6] was 0.99 µg/mL. The neutralization IC50 [7] was greater than 50 µg/mL, the neutralization IC80 [7] was greater than 50 µg/mL and the IC50, titer in TZM.bl cells [8] was 0.01 µg/mL. It also gave an IC80, titer in TZM.bl cells [8] of 0.05 µg/mL, a neutralization IC50 [9] of 0.04 µg/mL and a neutralization IC80 [9] of 0.15 µg/mL. It also gave an IC50, titer in TZM.bl cells [10] of 0.17 µg/mL, an IC80, titer in TZM.bl cells [10] of 0.64 µg/mL and a neutralization IC50 [11] of 0.01 µg/mL. For the same substance, the neutralization IC80 [11] was 0.04 µg/mL, the neutralization IC50 [12] was 27.5 µg/mL and the neutralization IC80 [12] was greater than 50 µg/mL. It also gave a neutralization IC50 [13] of less than 0.09 µg/mL, a neutralization IC80 [13] of 0.19 µg/mL and a neutralization IC50 [14] of 0.33 µg/mL. It also gave a neutralization IC80 [14] of 2.53 µg/mL, an IC50, titer in TZM.bl cells [15] of 1.58 µg/mL and an IC80, titer in TZM.bl cells [15] of 10.4 µg/mL. It also gave a neutralization IC50 [16] greater than 50 µg/mL, a neutralization IC80 [16] greater than 50 µg/mL and a neutralization IC50 [17] of 0.15 µg/mL. It also gave a neutralization IC80 [17] of 0.51 µg/mL, a neutralization IC50 [18] of 0.05 µg/mL and a neutralization IC80 [18] of 0.19 µg/mL. For the same substance, the neutralization IC50 [19] was 0.03 µg/mL, the neutralization IC80 [19] was 0.1 µg/mL and the IC50, titer in TZM.bl cells [20] was 0.25 µg/mL. The IC80, titer in TZM.bl cells [20] was 1.73 µg/mL, the neutralization IC50 [21] was 0.003 µg/mL and the neutralization IC80 [21] was 0.02 µg/mL. It also gave a neutralization IC50 [22] of less than 0.09 µg/mL, a neutralization IC80 [22] of less than 0.09 µg/mL and a neutralization IC50 [23] of 0.13 µg/mL. For the same substance, the neutralization IC80 [23] was 0.85 µg/mL, the neutralization IC50 [24] was 0.01 µg/mL and the neutralization IC80 [24] was 0.09 µg/mL. The IC50, titer in TZM.bl cells [25] was 0.15 µg/mL, the IC80, titer in TZM.bl cells [25] was 0.52 µg/mL and the neutralization IC50 [26] was 0.42 µg/mL. For the same substance, the neutralization IC80 [26] was 1.51 µg/mL, the neutralization IC50 [27] was 0.05 µg/mL and the neutralization IC80 [27] was 0.21 µg/mL. The neutralization IC50 [28] was 0.09 µg/mL, the neutralization IC80 [28] was 0.31 µg/mL and the neutralization IC50 [29] was 0.01 µg/mL. For the same substance, the neutralization IC80 [29] was 0.05 µg/mL, the neutralization IC50 [30] was 0.55 µg/mL and the neutralization IC80 [30] was 2.44 µg/mL. The neutralization IC50 [31] was 0.13 µg/mL, the neutralization IC80 [31] was 0.49 µg/mL and the IC50, titer in TZM.bl cells [32] was 0.03 µg/mL. The IC80, titer in TZM.bl cells [32] was 0.13 µg/mL, the IC50, titer in TZM.bl cells [33] was 0.48 µg/mL and the IC80, titer in TZM.bl cells [33] was 13 µg/mL. The neutralization IC50 [34] was 0.005 µg/mL, the neutralization IC80 [34] was 0.02 µg/mL and the IC50, titer in TZM.bl cells [35] was greater than 15 µg/mL. It also gave an IC80, titer in TZM.bl cells [35] greater than 15 µg/mL.
Substance VRC01 (antibody) has an IC50, titer in TZM.bl cells [3] of 0.71 µg/mL, an IC80, titer in TZM.bl cells [3] of 2.85 µg/mL and an IC50, titer in TZM.bl cells [4] of 2.25 µg/mL. The IC80, titer in TZM.bl cells [4] was 8.1 µg/mL, the IC50, titer in TZM.bl cells [7] was greater than 10 µg/mL and the IC80, titer in TZM.bl cells [7] was greater than 10 µg/mL. For the same substance, the IC50, titer in TZM.bl cells [9] was 0.21 µg/mL, the IC80, titer in TZM.bl cells [9] was 0.53 µg/mL and the IC50, titer in TZM.bl cells [10] was 1.7 µg/mL. The IC80, titer in TZM.bl cells [10] was 4.58 µg/mL, the IC50, titer in TZM.bl cells [11] was 0.08 µg/mL and the IC80, titer in TZM.bl cells [11] was 0.29 µg/mL. The IC50, titer in TZM.bl cells [12] was 2.8 µg/mL, the IC80, titer in TZM.bl cells [12] was 12.7 µg/mL and the IC50, titer in TZM.bl cells [13] was 0.22 µg/mL. It also gave an IC80, titer in TZM.bl cells [13] of 1.2 µg/mL, an IC50, titer in TZM.bl cells [14] of 0.11 µg/mL and an IC80, titer in TZM.bl cells [14] of 0.33 µg/mL. The IC50, titer in TZM.bl cells [16] was 0.35 µg/mL, the IC80, titer in TZM.bl cells [16] was 1.29 µg/mL and the IC50, titer in TZM.bl cells [17] was 0.64 µg/mL. It also gave an IC80, titer in TZM.bl cells [17] of 1.91 µg/mL, an IC50, titer in TZM.bl cells [18] of 0.12 µg/mL and an IC80, titer in TZM.bl cells [18] of 0.26 µg/mL. The IC50, titer in TZM.bl cells [19] was 0.06 µg/mL, the IC80, titer in TZM.bl cells [19] was 0.17 µg/mL and the IC50, titer in TZM.bl cells [20] was 3.4 µg/mL. The IC80, titer in TZM.bl cells [20] was 14.4 µg/mL, the IC50, titer in TZM.bl cells [21] was 0.02 µg/mL and the IC80, titer in TZM.bl cells [21] was 0.06 µg/mL. The IC50, titer in TZM.bl cells [22] was 0.21 µg/mL, the IC80, titer in TZM.bl cells [22] was 0.83 µg/mL and the IC50, titer in TZM.bl cells [23] was 2 µg/mL. The IC80, titer in TZM.bl cells [23] was 9.3 µg/mL, the IC50, titer in TZM.bl cells [24] was 0.1 µg/mL and the IC80, titer in TZM.bl cells [24] was 0.46 µg/mL. The IC50, titer in TZM.bl cells [25] was greater than 50 µg/mL, the IC80, titer in TZM.bl cells [25] was greater than 50 µg/mL and the IC50, titer in TZM.bl cells [26] was 0.82 µg/mL. For the same substance, the IC80, titer in TZM.bl cells [26] was 2.8 µg/mL, the IC50, titer in TZM.bl cells [27] was 0.32 µg/mL and the IC80, titer in TZM.bl cells [27] was 1.07 µg/mL. For the same substance, the IC50, titer in TZM.bl cells [28] was 0.42 µg/mL, the IC80, titer in TZM.bl cells [28] was 1.44 µg/mL and the IC50, titer in TZM.bl cells [29] was 0.06 µg/mL. For the same substance, the IC80, titer in TZM.bl cells [29] was 0.25 µg/mL, the IC50, titer in TZM.bl cells [30] was 0.54 µg/mL and the IC80, titer in TZM.bl cells [30] was 2.7 µg/mL. The IC50, titer in TZM.bl cells [31] was 1.5 µg/mL, the IC80, titer in TZM.bl cells [31] was 4.8 µg/mL and the IC50, titer in TZM.bl cells [32] was 0.17 µg/mL. It also gave an IC80, titer in TZM.bl cells [32] of 0.58 µg/mL, an IC50, titer in TZM.bl cells [33] of 0.45 µg/mL and an IC80, titer in TZM.bl cells [33] of 1.88 µg/mL. It also gave an IC50, titer in TZM.bl cells [34] of 0.09 µg/mL, an IC80, titer in TZM.bl cells [34] of 0.261 µg/mL and an IC50, titer in TZM.bl cells [35] greater than 50 µg/mL. For the same substance, the IC80, titer in TZM.bl cells [35] was greater than 50 µg/mL.
